Data taken from US20110318808.

Experiments:
[1] = molecular target: T1, fluorophore/quencher substrate peptide DABCYL-YGENVTFQGSK-EDANS
T1 chain: YGENVTFQGSK

[2] = molecular target: T2, fusion substrate protein with the ENVTFQG consensus recognition sequence
T2 chain: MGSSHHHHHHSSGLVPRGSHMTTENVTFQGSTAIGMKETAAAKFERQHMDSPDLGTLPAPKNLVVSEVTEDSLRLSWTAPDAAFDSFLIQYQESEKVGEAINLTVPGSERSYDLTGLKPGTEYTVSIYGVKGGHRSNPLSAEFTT

[3] = molecular target: T3, fusion substrate protein with the PVA NIa protease consensus sequence with a P2' proline (ENVTFQGP)
T3 chain: ENVTFQGP

[4] = molecular target: T4, fusion substrate protein with the TEV NIa protease recognition sequence (ENLYGQGS)
T4 chain: ENLYGQGS

[5] = molecular target: T5, fusion substrate protein with the TVMV NIa protease recognition sequence (ETVRFQGS)
T5 chain: ETVRFQGS

[6] = molecular target: T6, synthetic peptide SEAVYTQGSS (NIa/NIb junction recognition sequence EAVYTQG)
T6 chain: SEAVYTQGSS

[7] = molecular target: T7, synthetic peptide SEMVTNQSSS (recognition sequence EMVTNQS)
T7 chain: SEMVTNQSSS

[8] = molecular target: T8, synthetic peptide SENVTFQGSS (consensus recognition sequence ENVTFQG)
T8 chain: SENVTFQGSS

[9] = molecular target: T9, synthetic peptide SENVTKQLSS (recognition sequence ENVTKQL)
T9 chain: SENVTKQLSS

[10] = molecular target: T10, synthetic peptide SEVVLFQASS (P3/6K1 junction recognition sequence EVVLFQA)
T10 chain: SEVVLFQASS

B1: potato virus A (PVA) NIa protease, wild type (protein)
chain: STSMFRGVRDYNPISSVICQLENESEGRTTQLFGLGFGPFIITNQHLFVRNNGSLTVRSQMGVFKVNSTVTLQMRPVEGRDVLIIKMPKDFPPFPQRLKFRQPTHSEKVCLILTNFQQKSSSSMVSETSHIIPKENTYFWKHWISTKEGHCGSPIVSTTDGAILGIHSLSNMTNTSNYFACFPKGFTETYLATESAHEWVKGWKFNASNVCWGSFHLQDSKPTKEFKTVKLV
- Km (uM), DTT + [1]: 178 µM
- Relative Kcat/Km, DTT + [1]: 100
- Vmax (RFU/min), DTT + [1]: 78500 RFU/min
- proteolytic cleavage of the substrate monitored by SDS-PAGE [2]: cleaved the substrate to completion
- Cleaved by NIa (fusion substrate protein) [3]: No
- Cleaved by NIa (fusion substrate protein) [4]: No
- Cleaved by NIa (fusion substrate protein) [5]: Yes
- rate of cleavage of fusion substrate [5]: able to cleave the fusion substrate with the TVMV NIa protease recognition sequence, although at a much lower rate than the PVA NIa protease consensus sequence
- Cleaved by NIa (synthetic peptide, RP-HPLC and LC-MS) [6]: Yes
- Cleaved by NIa (synthetic peptide, RP-HPLC and LC-MS) [7]: No
- Cleaved by NIa (synthetic peptide, RP-HPLC and LC-MS) [8]: Yes
- Cleaved by NIa (synthetic peptide, RP-HPLC and LC-MS) [9]: No
- Cleaved by NIa (synthetic peptide, RP-HPLC and LC-MS) [10]: Yes
